The values below come from CN110144011A (SHANGHAI NOVAMAB BIOPHARMACEUTICALS CO LTD, dated 2019).

Numbering of substitutions follows the chain as printed. Some results are limits rather than exact numbers.

The chains are these.
B1: Nb20 (VHH)
VHH: QVQLQESGGGLVQPGGSLRLSCAASGFTFSVADMTWVRQGLGKGFEWVASVNSDGGSTYYADSVKGRFTISRDNAKNTLYLRLNSLKTEDTAVYYCAIGRTPCTGGFCHRGQGTQVTVSS
B2: Nb22 (VHH)
VHH: QVQLQESGGGSVRAGGSLRLSCAASGYTYSLYCMGWFRQAPGKEREGVAAISAGGGTTYYSDAVKGRFTISRDNAKKTLYLQMNSLNPEDTAMYYCARSGGYCGLLEYPFTSWGPGTQVTVSS
notes: Camel VHH from the pMECS vector, made in E. coli; detected through HA tag (ELISA) or His tag (flow cytometry); also called 抗体株22
B3: Nb25 (VHH)
VHH: QVQLQESGGGSVQAGGSLRLSCAASVDIYRTYCMGWFRQAPGKQREGVAAISTDGRIRYANSVEGRFTISKDNANNTLYLQMNSLKPEDTAMYFCAADSARCGLWLGGGYPNYWGRGTQVTVSS
notes: Camel VHH from the pMECS vector, made in E. coli; detected through HA tag (ELISA) or His tag (flow cytometry); also called 抗体株25
B4: Nb23 (VHH)
VHH: QVQLQESGGGSVQTGGSLRLSCTASGFTFSSADMSWVRQAPGKGLEWVSSINSGGGWTDYADSVQGRFTISRDNGKNTLYLQMNSLKTEDTAVYYCTIGNTYCSRGACLRGQGTQVTVSS
B5: Nb24 (VHH)
VHH: B4 VHH with S11L, T14P, T23A, S31V, W57R, D59Y, V64M, Q65K, N100H, R105G
B6: Nb26 (VHH)
VHH: QVQLQESGGGLVQPGGSLRLSCTASGSTFSTALMGWFRQAPGKEREGVAVISAGGGSTWYADSVKGRFTISRDNTKNTVFLQMISLKPEDTAMYYCASSNSLWTRESRYFGYWGQGTQVTVSS
notes: Camel VHH from the pMECS vector, made in E. coli; detected through HA tag (ELISA) or His tag (flow cytometry); also called 抗体株26
B7: Nb18 (VHH)
VHH: QVQLQESGGGLVQPGGSLRLSCAASGFTFSVADMSWVRQGPGKGFEWVSSINSDGVSTYYADSVKGRFTISRDNAENTLYLRANSLKTEDTAVYYCAIGHTPCTAGSCRRGQGTQVTVSS
B8: Nb27 (VHH)
VHH: QVQLQESGGGLVQPGGSLRLSCAAAGFTFSSSEMTWVRQAPGKGLEWVARISSTSAFTQYAGSVKGRFTISRDNAKNTLYLQLNSLKTEDTAMYYCAKDVYCGGQYCPPVGPGTQVTVSS
B9: Nb16 (VHH)
VHH: QVQLQESGGGSVQAGGSLRLSCTASRSTYCMGWFRQAPGKEREGVAIISSDGRTNYADPVKGRFTISKDNAKNTMFLQMNSLKPEDTAMYYCATRPGNSCGTGIDMPYWGKGTQVTVSS
notes: Camel VHH from the pMECS vector, made in E. coli; detected through HA tag (ELISA) or His tag (flow cytometry); also called 抗体株16
B10: Nb21 (VHH)
VHH: QVQLQESGGGSVQAGGSLRLYCAASKITYVSSCMGWFRQAPGKEREGVASIDRDGSTTYADSVKGRFTISRDNAKDSLYLQMNSLKPEDTAMYYCAADWGRWCSLEKAVDFVYWGQGTQVTVSS
notes: Camel VHH from the pMECS vector, made in E. coli; detected through HA tag (ELISA) or His tag (flow cytometry); also called 抗体株21
B11: Nb17 (VHH)
VHH: QVQLQESGGGSVQAGGSLRLSCAASTTLYIASLGWFRQAPGKEREGVAAVDRDGNLDYADSVKGRFTFSRDHAKNTLYLQMNSLKPEDAAMYYCSAALSYVPAGRRLQPDAYNYWGQGTQVTVSS
notes: Camel VHH from the pMECS vector, made in E. coli; detected through HA tag (ELISA) or His tag (flow cytometry); also called 抗体株17
B12: Nb19 (VHH)
VHH: QVQLQESGGGSVQAGGSLRLSCAASTYTVVRNCFGWFRQAPGKKREGVAVIDRDGSTRYAASVKGRFTISKDNAKNALYLQMSSLEPEDTAVYYCAADWNNDRSCPLWADGFGYWGQGTQVTVSS
notes: Camel VHH from the pMECS vector, made in E. coli; detected through HA tag (ELISA) or His tag (flow cytometry); also called 抗体株19
B13: Nb15 (VHH)
VHH: QVQLQESGGGSVQAGGSLKLSCTASVWIFSNCAMAWYRQAPGKEREFVSAIGSFRDTNYADSVKGRFTISRDNAKNTGYLQMNSLKPEDSAMYYCKIQCGTQVNWGQGTQVTVSS
notes: Camel VHH from the pMECS vector, made in E. coli; detected through HA tag (ELISA) or His tag (flow cytometry); also called 抗体株15
B14: Nb28 (VHH)
VHH: QVQLQESGGGSVQAGGSLRLSCAATKALVISCLAWFRQAPGKEREWVALIGRDGSTSYPDSVKGRFTFSKNTAKNTLELQMNNLKPEDTGAYYCAAATKQDGIPLNPADYDIWGRGTQVTVSS
notes: Camel VHH from the pMECS vector, made in E. coli; detected through HA tag (ELISA) or His tag (flow cytometry); also called 抗体株28
B15: Nb4 (VHH)
VHH: QVQLQESGGGSVQAGGSLRLSCTASGYTYSRACMGWFRQAPGKQREWVSGIRHDGSTSYADSVKGRFTISRDNAKNTLYLQMNSLKPEDTAMYYCGADIDCRQSRPPYWGQGTQVTVSS
notes: Camel VHH from the pMECS vector, made in E. coli; detected through HA tag (ELISA) or His tag (flow cytometry); also called 抗体株4
B16: Nb3 (VHH)
VHH: B15 VHH with A14V, E46D
notes: Camel VHH from the pMECS vector, made in E. coli; detected through HA tag (ELISA) or His tag (flow cytometry); also called 抗体株3
B17: Nb5 (VHH)
VHH: B15 VHH with A14V, F67S
notes: Camel VHH from the pMECS vector, made in E. coli; detected through HA tag (ELISA) or His tag (flow cytometry); also called 抗体株5
B18: Nb2 (VHH)
VHH: B15 VHH with A14V, A74T
notes: Camel VHH from the pMECS vector, made in E. coli; detected through HA tag (ELISA) or His tag (flow cytometry); also called 抗体株2
B19: Nb7 (VHH)
VHH: B15 VHH with T23A, T57I, S58T, Q103G, S104T
notes: Camel VHH from the pMECS vector, made in E. coli; detected through HA tag (ELISA) or His tag (flow cytometry); also called 抗体株7
B20: Nb6 (VHH)
VHH: B15 VHH with A14V, T57I, S58T, Q103G, S104T
notes: Camel VHH from the pMECS vector, made in E. coli; detected through HA tag (ELISA) or His tag (flow cytometry); also called 抗体株6
B21: Nb8 (VHH)
VHH: B15 VHH with T57I, S58T, S84N, Q103G, S104T
notes: Camel VHH from the pMECS vector, made in E. coli; detected through HA tag (ELISA) or His tag (flow cytometry); also called 抗体株8

The first assay has as its target TIM-3 on HEK 293T TIM-3稳转细胞 (UniProt Q8TDQ0). In words: flow cytometry on HEK 293T TIM-3 stable cells, 6 ug antibody per 5x10^5 cells, goat-anti-human FITC.
In the case of “TIM-3阳性抗体(bench marker，BMK; TSR-022) (antibody)”, the 阳性细胞比例 turned out to be 98.1%.

For the next assay the target is unchanged. In words: flow cytometry on HEK293T TIM-3 stable cells, 6 ug nanobody per well, anti-His Alexa Fluor 488. (In general: Flow cytometry measures light scatter and fluorescence of single cells or particles in a stream.)
Regarding B1, the 结合力 (阳性细胞的比例) was more than 80%.

The molecule B2 returned a 结合力 (阳性细胞的比例) of more than 80%.

As for B3, the 结合力 (阳性细胞的比例) is more than 80%.

Consider B4, for which the 结合力 (阳性细胞的比例) is more than 80%.

For B5, the 结合力 (阳性细胞的比例) is more than 80%.

B6 came in with a 结合力 (阳性细胞的比例) of more than 80%.

B7 displayed a 结合力 (阳性细胞的比例) of more than 80%.

The molecule B8 had a 结合力 (阳性细胞的比例) of more than 80%.

With B9, the 结合力 (阳性细胞的比例) was more than 80%.

For the molecule B10, the 结合力 (阳性细胞的比例) was more than 80%.

A further assay has as its target T1, TIM3(ECD)-Fc抗原 (human, UniProt Q8TDQ0 22-202).
T1 construct: extracellular domain;domain: Fc; Made in HEK293F cells, purified on Protein A; also called 人TIM3(ECD); pFUSE-IgG1-TIM3(ECD); not shown: TEV cleavage site at the C-terminus of TIM3(ECD); IgG1 Fc of the pFUSE-IgG1 vector
T1 sequence (looked up): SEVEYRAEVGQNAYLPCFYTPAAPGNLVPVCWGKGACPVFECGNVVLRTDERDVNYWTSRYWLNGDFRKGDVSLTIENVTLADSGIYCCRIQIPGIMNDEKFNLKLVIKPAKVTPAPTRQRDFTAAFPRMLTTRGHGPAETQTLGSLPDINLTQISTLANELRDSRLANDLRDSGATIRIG
Briefly: ELISA of crude periplasmic extract on antigen-coated plate, anti-HA detection; clones positive at OD ratio to control >3.
Consider B11, for which the binding result is given as “binds”.

B2: the binding result is given as “binds”.

Turning to B12, the binding result is recorded as “binds”.

Take B3: the binding result was “binds”.

Take B6: the binding result is “binds”.

As to B13, the binding result is recorded as “binds”.

For the molecule B14, the binding result is reported as “binds”.

For B9, the binding result is listed as “binds”.

B15: the binding result is “binds”.

Consider B16, for which the binding result is on record as “binds”.

For B17, the binding result is reported as “binds”.

Take B18: the binding result is given as “binds”.

Regarding B19, the binding result is reported as “binds”.

In the case of B20, the binding result is “binds”.

With B21, the binding result is on record as “binds”.

Consider B10, for which the binding result is on record as “binds”.
